# Values of other authors, collected in PMC7855609.
# Legend:
# Asp38 = Asp38 (UniProt position 104, FKVVFDTGSSN); test: kinetics; settings: Enzyme turning over the wild-type peptide substrate PTDP (His at P2)
# Asp226 = Asp226 (UniProt position 292, CLALVDTGASY); test: kinetics; settings: Enzyme turning over the wild-type peptide substrate PTDP (His at P2)
substance,measurement,setting,value
Renin (recombinant human renal renin) (Homo sapiens),pKa,Asp38,5.3
same,pKa,Asp226,6.3
